Measured values from article PMC4865918, “Inhibition of PRL-2·CNNM3 Protein Complex Formation Decreases Breast Cancer Proliferation and Tumor Growth*” (The Journal of Biological Chemistry, 2016).

Biological target: T1, His-PRL-2 (human, UniProt Q12974 1-167)
T1 construct: human PRL-2 (PTP4A2), 19-kDa construct; also called recombinant PRL-2; 19-kDa PRL-2 construct; source: Escherichia coli BL21, purified
T1 sequence (looked up): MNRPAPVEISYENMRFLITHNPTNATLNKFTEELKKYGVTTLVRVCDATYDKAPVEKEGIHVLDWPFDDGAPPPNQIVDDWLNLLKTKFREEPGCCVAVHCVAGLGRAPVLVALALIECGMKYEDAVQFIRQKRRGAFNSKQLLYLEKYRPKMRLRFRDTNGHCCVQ
Experiment: pull-down; in vitro; 20 ng GST-CBS on glutathione-Sepharose beads, equimolar His-PRL-2 (~10 ng), 4 °C 1 h; 150 mM NaCl, 20 mM Tris, 1% Triton-X, 5 mM 2-mercaptoethanol; without inhibitor (control)
Conditions: both partners purified

B1: GST-CBS (Bateman module of human CNNM3, amino acids 302-452) (domain or fragment, UniProt Q8NE01 302-452, looked up)
chain: SDLSKGVLRCRTVEDVLTPLEDCFMLDASTVLDFGVLASIMQSGHTRIPVYEEERSNIVDMLYLKDLAFVDPEDCTPLSTITRFYNHPLHFVFNDTKLDAVLEEFKRGKSHLAIVQKVNNEGEGDPFYEVLGLVTLEDVIEEIIRSEILDE
notes: human CNNM3, Bateman module, amino acids 302-452; also called GST-2xCBS; CBS tandem domain of CNNM3; source: Escherichia coli BL21, purified
**Q.** Does B1 bind?
**A.** binds
